Literature values in patent US20060122098A1, “System for infusing insulin to a subject to imporve impaired total body tissue glucose processing” (priority 2004, published 2006).

Conditions: in vivo

In the case of insulin, the half-life is given as 5 min.
